According to article PMC11199487, “Hub stability in the calcium calmodulin-dependent protein kinase II” (Communications Biology, 2024):
Positions count from the first letter of the chain named. In names and notes the source's numbering stands. Several values for one entry are separate records, joined by “and”; a condition that tells them apart may be missing. Identical values can stand only once.

B1: CaMKIIα hub (6His-V15-mCaMKIIα hub construct: Venus tag, 15-amino-acid linker, α association domain) (domain or fragment)
chain: VRKQEIIKVTEQLIEAISNGDFESYTKMCDPGMTAFEPEALGNLVEGLDFHRFYFENLWSRNSKPVHTTILNPHIHLMGDESACIAYIRITQYLDAGGIPRTAQSEETRVWHRRDGKWQIVHFHRSGAPSVLPH
notes: CaMKII alpha association domain (AD); made from the holoenzyme construct by removal of the kinase domain; The plasmid is named mCaMKIIα, but the introduction speaks of rat α hubs; also called isolated α hub; CaMKIIα AD hub; source: E. coli BL21/Rosetta, co-transformed with a protein phosphatase plasmid, purified (nickel Hi-Trap); not shown: Venus, N-terminal, kept
B2: CaMKIIβ hub (6His-V15-rCaMKIIβ hub construct) (domain or fragment, rat)
chain: ARKQEIIKTTEQLIEAVNNGDFEAYAKICDPGLTSFEPEALGNLVEGMDFHRFYFENLLAKNSKPIHTTILNPHVHVIGEDAACIAYIRLTQYIDGQGRPRTSQSEETRVWHRPDGKWQNVHFHCSGAPVAPLQ
notes: rat CaMKII beta association domain (AD); made from the holoenzyme construct by removal of the kinase domain; also called isolated β hub; native β; source: E. coli BL21/Rosetta, co-transformed with a protein phosphatase plasmid, purified (nickel Hi-Trap); not shown: Venus, N-terminal, kept
B3: CaMKIIβ holoenzyme T287A/T306A/T307A (6His-V15-rCaMKIIβ triple mutant) (enzyme, rat, UniProt P08413 1-542, looked up)
chain: MATTVTCTRFTDEYQLYEDIGKGAFSVVRRCVKLCTGHEYAAKIINTKKLSARDHQKLEREARICRLLKHSNIVRLHDSISEEGFHYLVFDLVTGGELFEDIVAREYYSEADASHCIQQILEAVLHCHQMGVVHRDLKPENLLLASKCKGAAVKLADFGLAIEVQGDQQAWFGFAGTPGYLSPEVLRKEAYGKPVDIWACGVILYILLVGYPPFWDEDQHKLYQQIKAGAYDFPSPEWDTVTPEAKNLINQMLTINPAKRITAHEALKHPWVCQRSTVASMMHRQEAVECLKKFNARRKLKGAILAAMLATRNFSVGRQTTAPATMSTAASGTTMGLVEQAKSLLNKKADGVKPQTNSTKNSSAITSPKGSLPPAALEPQTTVIHNPVDGIKESSDSTNTTIEDEDAKARKQEIIKTTEQLIEAVNNGDFEAYAKICDPGLTSFEPEALGNLVEGMDFHRFYFENLLAKNSKPIHTTILNPHVHVIGEDAACIAYIRLTQYIDGQGRPRTSQSEETRVWHRPDGKWQNVHFHCSGAPVAPLQ
notes: rat CaMKII beta, open reading frame codon optimized for bacterial expression, with T287A, T306A and T307A; Only the association-domain hub is resolved in the cryo-EM maps; also called engineered β holoenzyme; source: E. coli BL21/Rosetta, co-transformed with a protein phosphatase plasmid, purified (nickel Hi-Trap); not shown: Venus, N-terminal, kept
B4: CaMKIIβ hub F458A (domain or fragment, rat)
chain: B2 chain with F50A
notes: rat CaMKII beta association domain (AD) with F458A; as m2 with the substitution; The methods describe F458A mutagenesis only of 6His-V15-rCaMKIIβ (the holoenzyme construct); The results say that F458A disassembles isolated β hubs; also called βF458A (isolated hub); source: E. coli BL21/Rosetta, co-transformed with a protein phosphatase plasmid, purified (nickel Hi-Trap); not shown: Venus, …

How the values were obtained:
[1] = molecular target: the molecule itself; assay: cryo-EM structure; isolated Venus-tagged hubs, 20 mg/mL, flash-frozen stocks thawed on ice, grids plunge-frozen at 4 °C and 100% humidity; self-assembly of the association domains
[2] = molecular target: the molecule itself; assay: cryo-EM structure; Venus-tagged β holoenzyme sample, 20 mg/mL, fresh rather than flash-frozen preparation, grids plunge-frozen at 4 °C and 100% humidity; only the hub resolved
[3] = molecular target: the molecule itself; assay: SEC; EnRich SEC 650 column, 50 mM Tris, 150 mM KCl, 0.2 mM TCEP, 2% glycerol, pH 8.0, room temperature, thawed stocks applied without dilution, 250 μL, 1 mL/min

Row | Protein | stoichiometry N [1] | also measured
1 | B1 | 12 and 14 | 
2 | B2 | 12 and 14 | 
3 | B3 |  | stoichiometry N [2]: 14 and 12
4 | B4 |  | stoichiometry N [3]: 2
